Molecular target: human ROR1 extracellular domain (ECD) protein (human) (UniProt Q01973)
Assay: ForteBio Octet; pseudo association rate of Wnt5a binding to ROR1 in the presence of the negative control antibody, not a rate of the antibody itself

Sequence of human ROR1 extracellular domain (ECD) protein (human) (Q01973 30-406 limits assumed): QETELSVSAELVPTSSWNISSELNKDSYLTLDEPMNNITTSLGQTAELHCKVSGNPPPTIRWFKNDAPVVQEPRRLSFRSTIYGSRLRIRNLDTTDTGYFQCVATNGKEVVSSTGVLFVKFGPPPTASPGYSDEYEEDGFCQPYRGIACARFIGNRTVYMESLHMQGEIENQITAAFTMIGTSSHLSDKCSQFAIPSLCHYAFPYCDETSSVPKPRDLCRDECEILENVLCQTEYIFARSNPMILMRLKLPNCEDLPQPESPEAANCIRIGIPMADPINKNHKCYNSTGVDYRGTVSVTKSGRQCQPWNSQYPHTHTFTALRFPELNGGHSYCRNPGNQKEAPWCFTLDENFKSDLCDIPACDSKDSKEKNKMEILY

mAb Control (antibody)
Pesudo ka: 21000 M⁻¹ s⁻¹

Reference: patent publication US20180142016A1
